From PMC3048587 (Biochemistry, 2011)

Molecular target: Rac W56F mutant (UniProt P63000 1-192, W56F)
Test: cell-based or functional assay

B1: Dock180^DHR-2c (C-terminus of DHR-2 in Dock180, residues 1335-1657) (domain or fragment)
chain: KPDYFAVGYYGQGFPTFLRGKVFIYRGKEYERREDFEARLLTQFPNAEKMKTTSPPGDDIKNSPGQYIQCFTVKPKLDLPPKFHRPVSEQIVSFYRVNEVQRFEYSRPIRKGEKNPDNEFANMWIERTIYTTAYKLPGILRWFEVKSVFMVEISPLENAIETMQLTNDKINSMVQQHLDDPSLPINPLSMLLNGIVDPAVMGGFANYEKAFFTDRYLQEHPEAHEKIEKLKDLIAWQIPFLAEGIRIHGDKVTEALRPFHERMEACFKQLKEKVEKEYGVRIMPSSLDDRRGSRPRSMVRSFTMPSSSRPLSVASVSSLSSDS
For B1, the “Mant-GDP nucleotide exchange (GEF activity of DHR-2c), relative to wild-type Rac” value was < 10 % of the level of wild-type Rac.
